Source: the DeepSol protein solubility set

Assay: soluble on expression in E. coli; label from the status in PepcDB or PDB records
In the case of “ATTYNAVVSKSSSDGKTFKTIADAIASAPAGSTPFVILIKNGVYNERLTITRNNLHLKGESRNGAVIAAATAAGTLKSDGSKWGTAGSSTITISAKDFSAQSLTIRNDFDFPANQAKSDSDSSKIKDTQAVALYVTKSGDRAYFKDVSLVGYQATLYVSGGRSFFSDCRISGTVDFIFGDGTALFNNCDLVSRYRADVKSGNVSGYLTAPSTNINQKYGLVITNSRVIRESDSVPAKSYGLGRPWHPTTTFSDGRYADPNAIGQTVFLNTSMDNHIYGWDKMSGKDKNGNTIWFNPEDSRFFEYKSYGAGATVSKDRRQLTDAQAAEYTQSKVLGDWTPTLP”, the “soluble on expression in E. coli” value is reported as “soluble”.
For “AVSFIGSTENDVGPSQGSYSSTHAMDNLPFVYNTGYNIGYQNANVWRISGGFCVGLDGKVDLPVVGSLDGQSIYGLTEEVGLLIWMGDTNYSRGTAMSGNSWENVFSGWCVGNYVSTQGLSVHVRPVILKRNSSAQYSVQKTSIGSIRMRPYNGSSAGSVQTTVNFSLNPFTLNDTVT”, the “soluble on expression in E. coli” value was “soluble”.
For “AYPHIFGNLGVFSLASWFSERDFLRFLNHHPLDKNSKVFIQVGTKEGDAVDDEFAPNMNQAYIDCTLHYYQSLLRTGHPMEHIDLHIMANEIHHEKYWANHFIEFLKFTLK”, the “soluble on expression in E. coli” value was “not soluble”.
For “CIGLVNPKTPENVGSVMRAAGCYGVNSVFYTGKRYDIAKQFCTDTKSQHLNLPLIGVEDLRDIVPLDCVPVAVDLIEGAKPLPDYKHPPRAFYIFGPEDGTLKKEITDFCRETIYVPTNGCMNLAAAVNVIMYDRMAK”, the “soluble on expression in E. coli” value was “not soluble”.
For “CPECDEPLHYIRDAVSEKLEYIPAHFVVNRYVRPQYSCPCCQKVFSGEMPAHILPKSAVEPSVIAQVIINKYGDHLPLYRQQQVFARSDVGLPVSSMADMVGAAGAALSPLAALLHRELINRPVVHADETTLKILNTKKGGKSCSGYLWAYVSGERTGPSVVCFDCRTGRSHEYPENWLQGWGGTLVVDGHKAYRTLANKV”, the “soluble on expression in E. coli” value was “not soluble”.
For “DAAVTPEERHLSKMQQNGYENPTYKFFEQMQNSGPSSGIEGRGSSGSSGSSGSSGPTPKTELVQKFRVQYLGMLPVDRPVGMDTLNSAIENLMTSSSKEDWPSVNMNVADATVTVISEKNEEEVLVECRVRFLSFMGVGKDVHTFAFIMDTGNQRFECHVFWCEPNAANVSEAVQAAC”, the “soluble on expression in E. coli” value was “soluble”.
For “DDRGDFALVAGDALPQFSVEMSDGGVLNTQSFSGKVGVIVFFHTDCPDCQKELPVIQKVYDTYKENPDVLLSCISRSESGSEVQAYWEKHSFSLPFSAQNDDAVFSLFASHTIPRILITDKEGIIRAVYTDDPLATYQELAKDIDAVL”, the “soluble on expression in E. coli” value was “soluble”.
In the case of “DDVPPRIARAMENEEYWDFDIFELEAATHNRPLIYLGLKMFARFGICEFLHCSESTLRSWLQIIEANYHSSNPYHNSTHSADVLHATAYFLSKERIKETLDPIDEVAALIAATIHDVDHPGRTNSFLCNAGSELAILYNDTAVLESHHAALAFQLTTGDDKCNIFKNMERNDYRTLRQGIIDMVLATEMTKHFEHVNKFVNSINKPLATLEENGETDKNQEVINTMLRTPENRTLIKRMLIKCADVSNPCRPLQYCIEWAARISEEYFSQTDEEKQQGLPVVMPVFDRNTCSIPKSQISFIDYFITDMFDAWDAFVDLPDLMQHLDNNFKYWKGLDEM”, the “soluble on expression in E. coli” value is reported as “soluble”.
For “DEIVMDANAVLGPVDPQLGNFPAASILKVVKDKPIGEIDDQTLIMADLAGKAIQQVQRFVRTLLKDNIPKQKVNPENIESIIEALTTGRVTHDYPITVEEATEMGLPITVGLPRSIYELMDLYPQSQGGRPSVQYIPMPYDDRRPIL”, the “soluble on expression in E. coli” value was “not soluble”.
In the case of “DERLLAREVQKMRFRRSTYSSPQPATQQPANGSERKNDSDNLVGAENHSAETPTDNRSAEVEQPYYPAKYEEELLRLIIRYGERKLLIYRHEEGAEKQTPSEVALAYYIKSDLNADGVDIGTDVFRQILDEAAEQSFDSGFVAAKYFRDHPNAQISHIAVELLTNRYALSRIHYGKGDESNAEEDLQMRVERELLTIKNVFIQVQIRALQKEIAQAQKAGDIELQLEIMNELRSMNEMKSELAHRLGDRTVLP”, the “soluble on expression in E. coli” value is reported as “not soluble”.
For “DFEVGDKIRILATLEDGWLEGSLKGRTGIFPYRFVKLCPDTRVEETMALPQEGSLARIPETSLDCLENTLGVEEQRHETSDHEAEEPDCIISEAPTSPLGHLTSEYDTDRNSYQDEDTAGGPPRSPGVEWEMPLATDSPTSDPTEVVNGISSQPQVPFHPNLQKSQYYSTVGGSHPHSEQYPDLLPLEARTRDYASLPPKRMYSQLKTLQKPVLPLYRGSSVSASRVVKPRQSSPQLHNLASYTKKHHTSSVYSISERLEMKPGPQAQGLVMEAATHSQGDGSTDLDSKLTQQLIEFEKSLAGPGTEPDKILRHFSIMDFNSEKDIVRGSSKLITEQELPERRKALRPPPPRPCTPVSTSPHLLVDQNLKPAPPLVVRPSRPAPLPPSAQQRTNAVSPKLLSRHRPTCETLEKEGPGHMGRSLDQTSPCPLVLVRIEEMERDLDMYSRAQEELNLMLEEKQDESSRAETLEDLKFCESNIESLNMELQQLREMTLLSSQSSSLVAPSGSVSAENPEQRMLEKRAKVIEELLQTERDYIRDLEMCIERIMVPMQQAQVPNIDFEGLFGNMQMVIKVSKQLLAALEISDAVGPVFLGHRDELEGTYKIYCQNHDEAIALLEIYEKDEKIQKHLQDSLADLKSLYNEWGCTNYINLGSFLIKPVQRVMRYPLLLMELLNSTPESHPDKVPLTNAVLAVKEINVNINEYKRRKDLVLKYRKGDEDSLMEKISKLNIHSIIKKSNRVSSHLKHLTGFAPQIKDEVFEETEKNFRMQERLIKSFIRDLSLYLQHIRESACVKVVAAVSMWDVCMERGHRDLEQFERVHRYISDQLFTNFNGQKS”, the “soluble on expression in E. coli” value was “soluble”.
With “DKSNKLQNLVAEQLVGCGFNEILNNSLTRAAYYDGLESYPSKNLVMLLNPLSADLNCMRQTLLFGGLESIAHNANRKNADLKFFEFGNCYHFDAEKKNPEKVLAPYSEDYHLGLWVTGKMVSNSWAHADENTSVYELKAYVENIFKRLGLDLHSLVVGNLSDDIYSTALTVNTKGGKRLATFGVVTKKMLKAFDVDNEVYYADLNWKELM” the “soluble on expression in E. coli” value was “soluble”.
For “DKTVKRAVPFKIIKMIKELDLSFEPQLELARDIFLFSFYTRGMSFIDMAHLKKSNLQNGILTYSRKKTGQRLTILWEELMQEIVDKYKDDTSEYLLPILRYCDINDRKQYKLRAKQIGRGLNKIGLRLELKAPLTFYVARHSWASIAQDRKVSTDIIREGLGHDNEKTTHIYLASISTSQIDRANQIILRGL”, the “soluble on expression in E. coli” value was “soluble”.
For “DMKPNSTKIGVAEATDAALIQALQQRQVFTKTTQPTLSWEQYLELNLNSKSKRLALCNKLHLSYFNHKQLFRKLNLLQLTFDQVCQLLK”, the “soluble on expression in E. coli” value was “not soluble”.
In the case of “DMPAEIVNLIGKMRFHTVYGQNLLQHSREVAMLAGLMAAELKLDAKQAKRAGLLHDIGLVLPETEMPHALAGMEFLKKFNMSPVVLNAIGAHHGEVEKASPIADLVDAANIVSLSRPGARGAVTAEGNVKRLESLEEIARTFPGVIKTYALQAGREIRVIVEGDNVSD”, the “soluble on expression in E. coli” value is reported as “not soluble”.
With “DMPRPTGLAADIRWTAYGVPHIRAKDERGLGYGIGYAYARDNACLLAEEIVTARGERARYFGSEGKSSAELDNLPSDIFYAWLNQPEALQAFWQAQTPAVRQLLEGYAAGFNRFLREADGKTTSCLGQPWLRAIATDDLLRLTRRLLVEGGVGQFADALVAAAPPGAEKV” the “soluble on expression in E. coli” value was “soluble”.
With “DNKELQKLTEDISETYFKKPFRHQALFNDRLKTTGGRYLLTSHNIELNRKYLIEHGREELIGIIKHELCHYHLHLEGKGYKHRDRDFRMLLQQVNAPRFCTPLKKKAENKKTYMYICTTCGQQYIKKRAMNPDRYRCGKCRGKIKRI” the “soluble on expression in E. coli” value was “not soluble”.
With “DPSKGRWVEGITSEGYHYYYDLISGASQWEKPEGFQGDLKKTAVKTVWVEGLSEDGFTYYYNTETGESRWEKPDD” the “soluble on expression in E. coli” value was “soluble”.
For “DQQLVDQLSQLKLNVKMLDNRAGENGVDCAALGADWASCNRVLFTLSNDGQAIDGKDWVIYFHSPRQTLRVDNDQFKIAHLTGDLYKLEPTAKFSGFPAGKAVEIPVVAEYWQLFRNDFLPRWYATSGDAKPKMLANTDTENLDQFVAPFTGDQWKRTKDDKNILMTPASRFVSNADLQTLPAGALRGKIVPTPMQVKVHAQDADLRKGVALDLSTLVKPAADVVSQRFALLGVPVQTNGYPIKTDIQPGKFKGAMAVSGAYELKIGKKEAQVIGFDQAGVFYGLQSILSLVPSDGSGKIATLDASDAPRFPYRGIFLDVARNFHKKDAVLRLLDQMAAYKLNKFHFHLSDDEGWRIEIPGLPELTEVGGQRCHDLSETTCLLPQYGQGPDVYGGFFSRQDYIDIIKYAQARQIEVIPEIDMPAHARAAVVSMEARYKKLHAAGKEQEANEFRLVDQTDTSNTTSVQFFNRQSYLNPCLDSSQRFVDKVIGEIAQMHKEAGQPIKTWHFGGDDAKNIRLGAGYTDKAKPEPGKGIIDQSNEDKPWAKSQVCQTMIKEGKVADMEHLPSYFGQEVSKLVKAHGIDRMQAWQDGLKDAESSKAFATSRVGVNFWDTLYWGGFDSVNDWANKGYEVVVSNPDYVYMDFPYEVNPDERGYYWGTRFSDERKVFSFAPDNMPQNAETSVDRDGNHFNAKSDKPWPGAYGLSAQLWSETQRTDPQMEYMIFPRALSVAERSWHRAGWEQDYRAGREYKGGETHFVDTQALEKDWLRFANILGQRELAKLDKGGVAYRLPVPGARVAGGKLEANIALPGLGIEYSTDGGKQWQRYDAKAKPAVSGEVQVRSVSPDGKRYSRAEKV”, the “soluble on expression in E. coli” value was “soluble”.
With “DYKDIVLTQSHKFMSTSVGDRVSITCKASQDVGTAVAWYQQKPGQSPKLLIYWASTRHTGVPDRFTGSGSGTDFTLTISNVQSEDLADYFCQQYSSYPLTFGAGTKLELKRGGGGSGGGGSGGGGSGGGGSQVQLQESGGELVRPGASVKLSCKASGYTFTSYWINWVKQRPGQGLEWIGNIYPSDSYTNYNQKFKDKATLTVDKSSSTAYMQLSSLTSEDSAVYFCARWGYWGQGTLVTVSAASGAHHHHH” the “soluble on expression in E. coli” value was “soluble”.
For “DYNGQAKCMLEKVGNWNFDIFLFDRLTNGNSLVSLTFHLFSLHGLIEYFHLDMMKLRRFLVMIQEDYHSQNPYHNAVHAADVTQAMHCYLKEPKLANSVTPWDILLSLIAAATHDLDHPGVNQPFLIKTNHYLATLYKNTSVLENHHWRSAVGLLRESGLFSHLPLESRQQMETQIGALILATDISRQNEYLSLFRSHLDRGDLCLEDTRHRHLVLQMALKCADICNPCRTWELSKQWSEKVTEEFFHQGDIEKKYHLGVSPLCDRHTESIANIQIGFMTYLVEPLFTEWARFSNTRLSQTMLGHVGLNKASWKGLQR”, the “soluble on expression in E. coli” value was “soluble”.
For “DYVGGCLDFRPEEGIFRIARDMFTEPELFDLEMELIFEKNWIYACHESELARPHDFVTLRAGRQPLIVTRDGNGQLHALVNACQHRGATLVRVGKGNQSTFTCPFHAWCYKNDGRLVKVKAPGEYPEGFDKATRGLKKARIQSYRGFVFVSLDVAGEDDLVDFLGDARVFLDMLVAQSPSGELEVLPGTSTYTYEGNWKLQNENGLDGYHVSTVHYNYVATVQHRQQVEAERGGVAATLDYSKLGAGDAATDDGWFSFANGHSVLFSEMPNPAVRPGYASVMPRLVAEYGQARAEWMMHRLRNLNLYPSLFVIDQISSQLRIVRPLAWNRTEIVSQCIGVKGESDADRENRIRQFEDFFNVSGMGTPDDLVEFREAQRGFQARLERWSDISRGHGKWLEGATPNSQALGIAPLLTGTEITHEGLYVNQHAHWRRFLLDGLERLALRA”, the “soluble on expression in E. coli” value was “not soluble”.
In the case of “EAAYSHTPLIMVSADRPERLHGTGANQTIEQRGIFNVVDTDHVVDITDLNSISFARNVIHINVALDVPLVDVLPEVGDPVERVREVIEVDHGEVVLNLNERILVVAGDEAWEVPGLEDVPTIAEPSAPAPYHPVHPLAAQIFAHKEIKPEHIVVVGHPTLHRAVLSLLADVPVTVLTKTDTITGNPQAVGSRVKVTGELDKRWLQICEDASTLCADRVKEVLEGH”, the “soluble on expression in E. coli” value is reported as “not soluble”.
In the case of “EDKTITTLYVGGLGDTITETDLRNHFYQFGEIRTITVVQRQQCAFIQFATRQAAEVAAEKSFNKLIVNGRRLNVKWGR”, the “soluble on expression in E. coli” value is reported as “soluble”.
